For this assay, the target named is CPn0678–GFP (Chlamydia pneumoniae). In words: FRET or BRET. Background: BRET reads energy transfer from a luciferase to a nearby fluorophore.

“mCherry–SNX9 (from UniProt Q9Y5X1 1-595) (natural protein)” yielded an average donor fluorescence lifetime with the acceptor (FLIM-FRET) of 2.6 ns and a reduction of donor fluorescence lifetime (FLIM-FRET) of 256 ps.

(Values after article PMC7007526.)
